T1: Xenopus Chordin-Myc (Xenopus, UniProt Q91713 20-941)
T1 sequence (looked up): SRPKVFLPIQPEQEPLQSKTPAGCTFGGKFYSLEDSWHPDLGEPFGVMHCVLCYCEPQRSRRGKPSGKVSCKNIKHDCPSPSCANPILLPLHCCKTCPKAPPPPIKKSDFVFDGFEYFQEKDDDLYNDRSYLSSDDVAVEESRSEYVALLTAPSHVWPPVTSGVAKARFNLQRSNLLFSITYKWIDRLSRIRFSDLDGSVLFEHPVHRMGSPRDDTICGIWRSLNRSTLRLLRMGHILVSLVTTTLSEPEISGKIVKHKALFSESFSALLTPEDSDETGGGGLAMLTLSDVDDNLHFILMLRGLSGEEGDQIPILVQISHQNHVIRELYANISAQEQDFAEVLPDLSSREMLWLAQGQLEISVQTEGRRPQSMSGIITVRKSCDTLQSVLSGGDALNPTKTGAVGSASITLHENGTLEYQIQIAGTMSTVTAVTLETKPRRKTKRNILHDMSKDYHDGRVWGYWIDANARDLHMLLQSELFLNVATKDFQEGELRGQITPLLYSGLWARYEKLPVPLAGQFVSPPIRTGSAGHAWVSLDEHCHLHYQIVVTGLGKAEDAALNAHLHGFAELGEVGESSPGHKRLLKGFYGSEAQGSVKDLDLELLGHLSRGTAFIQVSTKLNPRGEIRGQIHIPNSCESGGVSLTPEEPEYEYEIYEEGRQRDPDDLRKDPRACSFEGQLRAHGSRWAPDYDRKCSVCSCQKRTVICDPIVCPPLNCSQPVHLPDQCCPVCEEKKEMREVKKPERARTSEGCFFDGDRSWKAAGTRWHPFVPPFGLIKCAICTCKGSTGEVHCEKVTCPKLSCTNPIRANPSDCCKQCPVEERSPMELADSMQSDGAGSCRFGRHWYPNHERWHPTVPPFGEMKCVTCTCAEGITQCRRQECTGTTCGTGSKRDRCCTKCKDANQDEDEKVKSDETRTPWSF

B1: Crossveinless-2 (recombinant mouse CV2) (natural protein)
chain: not shown
B2: Bone Morphogenetic Protein 4 (recombinant human BMP4) (ligand, UniProt P12644 293-408, looked up)
chain: SPKHHSQRARKKNKNCRRHSLYVDFSDVGWNDWIVAPPGYQAFYCHGDCPFPLADHLNSTNHAIVQTLVNSVNSSIPKACCVPTELSAISMLYLDEYDKVVLKNYQEMVVEGCGCR
B3: Twisted gastrulation (recombinant mouse Tsg) (natural protein, UniProt Q9EP52 25-222, looked up)
chain: CNKALCASDVSKCLIQELCQCRPGEGNCPCCKECMLCLGALWDECCDCVGMCNPRNYSDTPPTSKSTVEELHEPIPSLFRALTEGDTQLNWNIVSFPVAEELSHHENLVSFLETVNQLHHQNVSVPSNNVHAPFPSDKERMCTVVYFDDCMSIHQCKISCESMGASKYRWFHNACCECIGPECIDYGSKTVKCMNCMF

The target in one assay is T1, Xenopus Chordin-Myc. The assay can be described thus: cross-linking.
The target of assay [1] is B3. The assay can be described thus: cross-linking.
In assay [2] the target is B1. The experiment in a line: co-IP.

For the molecule B1, the binding result with Xenopus Chordin-Myc is given as “binds”.

Regarding B2, the binding result (in the assay with Xenopus Chordin-Myc; in assay [1]) was “binds” in each case.

Turning to B3, the binding result in assay [2] was “binds”.

The values above are taken from publication PMC2581521 (Developmental cell, 2008).
